These results are taken from PMC2568806, “Two Estrogen Response Element Sequences Near the PCNA Gene Are Not Responsible for Its Estrogen-Enhanced Expression in MCF7 Cells”.

Data set [1] addresses T1, recombinant estrogen receptor alpha (rERα) (UniProt P03372 1-595). The experiment in a line: EMSA, supershift; HESC nuclear extract; weaker than consensus ERE, stronger than PCNA-ERE2; 25 mM Tris-HCl pH 8.0, 50 mM KCl, 6.25 mM MgCl2, 10% glycerol, 0.5 mM DTT; 5 µg HESC nuclear extract + 170 nM rERα; 5% acrylamide gel in TBE; temperature not stated. The conditions noted are these: protein: commercial; chain copies: 2; blunt. A general note: In EMSA bound probe runs differently from free probe, usually more slowly.

Data set [2] deals with T1, recombinant estrogen receptor alpha …. The experiment in a line: EMSA, supershift; HESC nuclear extract; 25 mM Tris-HCl pH 8.0, 50 mM KCl, 6.25 mM MgCl2, 10% glycerol, 0.5 mM DTT; 5 µg HESC nuclear extract + 170 nM rERα; 5% acrylamide gel in TBE; temperature not stated. The conditions noted are these: protein: commercial; chain copies: 2; label: 32P 5' end; blunt.

T1 sequence (P03372 whole entry): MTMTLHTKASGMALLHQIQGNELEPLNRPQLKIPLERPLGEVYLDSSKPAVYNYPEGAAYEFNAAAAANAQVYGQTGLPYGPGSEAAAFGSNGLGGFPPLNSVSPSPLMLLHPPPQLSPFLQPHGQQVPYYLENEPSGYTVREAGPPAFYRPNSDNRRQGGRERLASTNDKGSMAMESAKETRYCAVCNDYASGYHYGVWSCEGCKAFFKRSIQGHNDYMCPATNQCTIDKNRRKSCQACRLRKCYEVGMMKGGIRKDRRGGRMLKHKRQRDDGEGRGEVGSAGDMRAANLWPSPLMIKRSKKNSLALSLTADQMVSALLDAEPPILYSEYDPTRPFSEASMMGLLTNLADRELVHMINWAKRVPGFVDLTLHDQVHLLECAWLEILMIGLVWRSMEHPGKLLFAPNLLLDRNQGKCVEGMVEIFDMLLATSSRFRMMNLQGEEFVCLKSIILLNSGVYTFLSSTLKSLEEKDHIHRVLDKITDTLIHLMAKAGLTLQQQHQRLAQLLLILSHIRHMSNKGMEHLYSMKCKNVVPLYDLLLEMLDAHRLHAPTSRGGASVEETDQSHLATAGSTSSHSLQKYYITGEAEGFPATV

B1: PCNA-ERE1 (dsDNA)
DNA 1: GGGAGTTTGAGGCCAGCCTGACCAACATTG
DNA 2: CAATGTTGGTCAGGCTGGCCTCAAACTCCC
B1: the binding result in data set [1] is “binds”.

B2: consensus ERE (dsDNA)
DNA 1: GGATCTAGGTCACTGTGACCCCGGATC
DNA 2: GATCCGGGGTCACAGTGACCTAGATCC
For B2, the binding result in data set [2] was “binds”.
